Measured values taken from publication PMC11053944, “FRET Assays for the Identification of C. albicans HSP90-Sba1 and Human HSP90α-p23 Binding Inhibitors” (Pharmaceuticals, 2024).

Columns and labels:
[1] = target: C. albicans HSP90 (without fluorescent protein) (C. albicans) (UniProt P46598)
[2] = target: C. albicans HSP90 (without fluorescent protein) (C. albicans) (UniProt P46598); remark: listed apart in the source

C. albicans Aha1 (from UniProt A0A1D8PU72 1-346) (natural protein)
HSP90 ATPase activity (ADP-Glo), 2.5 µM HSP90 with 1-20 µM Aha1, 1 mM ATP, 1 h at 30 °C; fold of HSP90 alone [1]: 7 fold
HSP90 ATPase activity (ADP-Glo), 2.5 µM HSP90 with Aha1 (20 µM) and Sba1 (20 µM) together, 1 mM ATP; fold of HSP90 alone [2]: 1.9 fold
